Key:
B6 [1] = test: SPR; equilibrium
A8 = test: SPR; kinetic
C7 [2] = test: SPR; kinetic
C3 [3] = test: SPR; kinetic
A7 = test: SPR; kinetic
C12 [4] = test: SPR; kinetic
C2 [5] = test: SPR; kinetic
C10 [6] = test: SPR; kinetic
A6 = test: SPR; kinetic
C9 [7] = test: SPR; kinetic
IL-13Rα2, biotinylated [8] = molecular target: T1, IL-13Rα2, biotinylated (human, UniProt Q14627 27-343, biotinylated (site not stated)); test: SPR; equilibrium
T1 chain: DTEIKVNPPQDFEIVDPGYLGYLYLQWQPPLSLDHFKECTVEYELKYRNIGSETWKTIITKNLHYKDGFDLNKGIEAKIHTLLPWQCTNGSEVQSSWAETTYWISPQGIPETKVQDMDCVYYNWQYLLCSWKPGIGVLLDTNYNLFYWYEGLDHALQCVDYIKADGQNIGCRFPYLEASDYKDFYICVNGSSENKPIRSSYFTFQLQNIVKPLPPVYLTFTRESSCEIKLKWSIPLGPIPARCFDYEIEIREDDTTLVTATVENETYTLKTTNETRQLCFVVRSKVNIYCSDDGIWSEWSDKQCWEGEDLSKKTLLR

IL-13Rα2, biotinylated [9] = molecular target: T1, IL-13Rα2, biotinylated; test: SPR; kinetic
C7 [10] = test: SPR; equilibrium
C3 [11] = test: SPR; equilibrium
C12 [12] = test: SPR; equilibrium
C2 [13] = test: SPR; equilibrium
C10 [14] = test: SPR; equilibrium
C9 [15] = test: SPR; equilibrium
B6 [16] = test: SPR; kinetic
IL-13Rα2, biotinylated [17] = molecular target: T1, IL-13Rα2, biotinylated; test: SPR; kinetic

B1: IL-13Rα2 (receptor)
chain: DTEIKVNPPQDFEIVDPGYLGYLYLQWQPPLSLDHFKECTVEYELKYRNIGSETWKTIITKNLHYKDGFDLNKGIEAKIHTLLPWQCTNGSEVQSSWAETTYWISPQGIPETKVQDMDCVYYNWQYLLCSWKPGIGVLLDTNYNLFYWYEGLDHALQCVDYIKADGQNIGCRFPYLEASDYKDFYICVNGSSENKPIRSSYFTFQLQNIVKPLPPVYLTFTRESSCEIKLKWSIPLGPIPARCFDYEIEIREDDTTLVTATVENETYTLKTTNETRQLCFVVRSKVNIYCSDDGIWSEWSDKQCWEGEDLSKKTLLR
modifications: biotinylated (site not stated)
Kd (B6 [1]): 53 nM | Kd (A8): 0.263 nM | Kd (C7 [2]): 0.272 nM | Kd (C3 [3]): 0.379 nM | Kd (A7): 0.218 nM | Kd (C12 [4]): 0.053 nM | Kd (C2 [5]): 0.025 nM | Kd (C10 [6]): 5 nM | Kd (A6): 0.267 nM | Kd (C9 [7]): 0.259 nM

B2: IL-13 variant B4 (ligand)
chain: PGPVPPSTALSELIEELINITQNQKAPLCNGSMVWSINPTAGMYCAALESLINVSGCSAIEKTQRMLSGFCPHKVAAGQFSSLHDKGSMIEVAQFVKDLLYHLRTLFREGQFNHHHHHH
Kd (IL-13Rα2, biotinylated [8]): 108 nM

B3: IL-13 variant C11 (ligand)
chain: PGPVPPSTAHRELIEELVNITQNQKAPLCNGSMVWSINLTAGMYCAALESLINVSGCSAIEKTQRMLSGFCPHKVSAGQFSSLHVTGRKIEVAQFVKDLLLHLKKLFKEGQFNHHHHHH
Kd (IL-13Rα2, biotinylated [9]): 0.0001 nM

B4: IL-13Rα1 (receptor)
chain: GGGGAAPTETQPPVTNLSVSVENLCTVIWTWNPPEGASSNCSLWYFSHFGDKQDKKIAPETRRSIEVPLNERICLQVGSQCSTNESEKPSILVEKCISPPEGDPESAVTELQCIWHNLSYMKCSWLPGRNTSPDTNYTLYYWHRSLEKIHQCENIFREGQYFGCSFDLTKVKDSSFEQHSVQIMVKDNAGKIKPSFNIVPLTSRVKPDPPHIKNLSFHNDDLYVQWENPQNFISRCLFYEVEVNNSQTETHNVFYVQEAKCENPEFERNVENTSCFMVPGVLPDTLNTVRIRVKTNKLCYEDDKLWSNWSLNDIFEAQKIEWHEHHHHHH
modifications: biotin on the C-terminal biotin acceptor peptide (coexpressed with BirA ligase)
Kd (C7 [10]): 35000 nM | Kd (C3 [11]): 16000 nM | Kd (C12 [12]): 15000 nM | Kd (C2 [13]): 4000 nM | Kd (C10 [14]): 264 nM | Kd (C9 [15]): 31000 nM | Kd (A8): 2.06 nM | Kd (A7): 1.18 nM | Kd (A6): 1.9 nM | Kd (B6 [16]): 5.9 nM

B5: IL-13 variant D7 (ligand)
chain: PGPVPPSTAARELIEELFNITQNQKAPLCNGSMVWSINLTAGMYCAALESLINVSGCSAIEKTKRMLSGFCPHKVSAGQFPSLHVKKTRIEVAQFVKDLLIHLRKLFKEGQFNHHHHHH
Kd (IL-13Rα2, biotinylated [9]): 0.003 nM

B6: IL-13 variant A11 (ligand)
chain: PGPVPPSTAVRELIEELINITQNQKAPLCNGSMVWSINRTAGMYCAALESLINVSGCSAIEKTQRMLSGFCPHKVSAGQFSSLHVRSSKIEVAQFVKDLLFHLRTLFREGQFNHHHHHH
Kd (IL-13Rα2, biotinylated [9]): 0.391 nM

B7: IL-13 variant A5 (ligand)
chain: PGPVPPSTALIELIEELINITQNQKAPLCNGSMVWSINLTAGIYCAALESLINVSGCSAIEKTQRMLSGFCPHKVSAGQFSSLHVKGSKIEVAQFVKDLLHHLRALMREGQFNHHHHHH
Kd (IL-13Rα2, biotinylated [8]): 50 nM

B8: IL-13 variant B2 (ligand)
chain: PGPVPPSTALRELIEELINITQNEKAPLCNGSMVWSINLTAGIYCAALESLINVSGCSAIEKTQRMLSGFCPHKVSAGQFSSLHVTGSKIEVAQFVKDLLYHLRALFREGQFNHHHHHH
Kd (IL-13Rα2, biotinylated [9]): 1.5 nM

B9: IL-13 variant C4 (ligand)
chain: PGPVPPSTAVRELIEELVNITQNQKAPLCNGSMVWSINLTAGMYCAALESLINVSGCSAIEKTQRMLSGFCPHKVSAGQFSSLHVRDTRIEVAQFVKDLLNHLKELFTEGQFNHHHHHH
Kd (IL-13Rα2, biotinylated [9]): 0.393 nM

B10: IL-13 variant DN (ligand)
chain: PGPVPPSTAVRALIEELINITQNQKAPLCNGSMVWSINRTAGMYCAALESLINVSGCSAIEKTQDMLSGFCPHKVSAGQFSSLHVRSSKIEVAQFVKDLLFHLRTLFREGQFNHHHHHH
Kd (IL-13Rα2, biotinylated [17]): 0.391 nM

— patent publication US20150056162A1 (published 2015)
